Source: the supplement of paper PMC12764529
± gives the half width of the 95% confidence interval.

How the values were obtained:
[1] = folding stability dG unfold from trypsin proteolysis; higher = more stable
In short: (§1)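 Sequencing followed digestion of designed mini-proteins with trypsin and chymotrypsin, each at 11 concentrations in threefold dilutions together with a no-protease condition. The mini-proteins were under 80 residues, had no cysteine, sat in a PA-tagged cDNA display construct, and were kept only if AlphaFold2 dimer inter-PAE was above 15. From the counts, Bayesian fitting gave K50, and unfolding free energy was derived against a sequence-predicted unfolded-state K50 and a shared folded-state K50, per protease or combined.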

[2] = folding stability dG unfold from chymotrypsin proteolysis; higher = more stable
In short: as §1

[3] = folding stability dG unfold (combined trypsin and chymotrypsin); higher = more stable
In short: as §1

Sequence	folding stability dG unfold [1]	folding stability dG unfold [2]	folding stability dG unfold [3]
SAGMEIEITGPNLEELAEKVAKELKEKNWSPPVTITLKEPGGKTVLKVTVEFNPPNPNEIKVTKEKVESAGG [r19_85_JUSTAS]	0.571 ± 0.14 kcal/mol	0.902 ± 0.062 kcal/mol	0.683 ± 0.18 kcal/mol
SAGGSAGGKKPVYEIEITTKDGSKLTIAVKEGEEVEIKITVNGKEISLEDITSIEIRPVELPEESAGGSAGG [r6_222_TrROS_Hall]	1.99 ± 0.16 kcal/mol	1.84 ± 0.089 kcal/mol	1.94 ± 0.098 kcal/mol
SMVEIKVEPEKSIIKATLTLKDKTVEEIKQLAKEYFEKLGYKIKVEVKEVKTFEDSVTLKFEIKVPKGLVSA [r9_347_JUSTAS]	1.94 ± 0.1 kcal/mol	2.27 ± 0.11 kcal/mol	2.45 ± 0.26 kcal/mol
SAGGSAGGSAGSMTVTLTITDPRNSATTTYTVPSSNYEEFLKANPEIEKNGWTVTVDTNGSAGGSAGGSAGG [r17_176_JUSTAS]	1.15 ± 0.044 kcal/mol	0.903 ± 0.15 kcal/mol	1.05 ± 0.13 kcal/mol
SMGSITITLPATPEELRELLREKGISPELAPSWEEVKEALKKAFPKNVTVTINPKSPVSEEAAKAAREGSSA [r9_74_JUSTAS]	0.462 ± 0.038 kcal/mol	1.45 ± 0.017 kcal/mol	1.13 ± 0.064 kcal/mol
SAGGSAGGSAGGSGLYLRLFDPGTGNVVAEVRVEIAPDGSLIAEARVADVPPVEDPEKASAGGSAGGSAGGS [r4_178_TrMRF]	0.712 ± 0.048 kcal/mol	2.39 ± 0.072 kcal/mol	1.85 ± 0.17 kcal/mol
SAGMPIRVRLLVERPALDPETGEPVVERREVVLTLHPEEIASGIPVEELAKELEKAFPGAKVTVLEVSSAGG [r19_110_TrMRF]	3.88 ± 0.11 kcal/mol	3.77 ± 0.044 kcal/mol	3.81 ± 0.047 kcal/mol
SGLVEAIAKALGAESVTPHPDGTFSLRLKDGSYLKIKVEVLEVRERPDGSPEFIVKIEIEVFEGGKPEDESA [r9_648_TrMRF]	4.56 ± 0.14 kcal/mol	5.94 ± 0.065 kcal/mol	> 6 kcal/mol
SAGMDKPLKVLEIGGAILPNTGKVVLKAKVEDPDSNTPLDLTLTLPVVDPVTGKPYIFTASYTYESPLSAGG [r19_129_TrMRF]	0.338 ± 0.13 kcal/mol	0.844 ± 0.17 kcal/mol	0.681 ± 0.12 kcal/mol
SAGGSAGGSAGMRKVVTGKEAVVKLTGIPPEVLEAMSEEELRALVAPLVEAGKVDEIELKSAGGSAGGSAGG [r11_80_JUSTAS]	-0.0624 ± 0.17 kcal/mol	0.898 ± 0.052 kcal/mol	0.601 ± 0.13 kcal/mol
SAGKWKVRTIPLPGFSITIWYDPDEGRIRISITMWMWKPKKDPENGKPKQEHRMMTMEAPIPIPPGAPISAG [r5_195_TrROS]	1.86 ± 0.074 kcal/mol	2.51 ± 0.29 kcal/mol	2.3 ± 0.27 kcal/mol
SAGGSAGGSAGGSKKKKIIIVVPKEELSEEQIKALKDLGYEIEIVEVEKKPVKVKKKKKSAGGSAGGSAGGS [r4_294_TrROS_Hall]	0.62 ± 0.068 kcal/mol	2.08 ± 0.12 kcal/mol	1.53 ± 0.22 kcal/mol
SAGGSAGGSPYTIMYPIPGDTVEEVKDIAKEIMEHFPNFKITVSVEPPKDGQYWVTIELEMPDSAGGSAGGS [r12_425_TrROS]	1.87 ± 0.11 kcal/mol	2.23 ± 0.049 kcal/mol	2.09 ± 0.15 kcal/mol
SAGGSAKATLPEGVKIETKTFKLDGRKYMPFVFEAPDDDWVWVNEMRMDPNGKMEMETIWIPPDAVSAGGSA [r15_986_TrROS]	0.368 ± 0.32 kcal/mol	0.384 ± 0.44 kcal/mol	0.375 ± 0.23 kcal/mol
ERDLIVIAGDDLTPEQLRELLEELGFRPEDAEIFREGDALLIVLPDAVILVVRPPPLPVLSEDDPELLEEAS [r1_57_TrMRF]	3.22 ± 0.16 kcal/mol	3.28 ± 0.23 kcal/mol	3.19 ± 0.2 kcal/mol
SAGGSAGGSAGGMPLVRIEVTNENGEKFTFIFESEEEAKAAAEALGVDVKIEKIPPGEEISAGGSAGGSAGG [r7_456_TrROS_Hall]	2.54 ± 0.17 kcal/mol	3.25 ± 0.085 kcal/mol	2.92 ± 0.14 kcal/mol
SAETVTITLPGATITVEKVDGKWIATVTKVEPGADKVTVEVTLTKVDEDGNTTTVTETVTIDAKTGKVLSAG [r14_724_TrROS_Hall]	2.7 ± 0.32 kcal/mol	2.92 ± 0.19 kcal/mol	2.81 ± 0.23 kcal/mol
SAGGSAGGSAGGMKTITIKVPSSVSFEEAKKKAEALFPKSIPVKVEYDPKTGTFTVTVESAGGSAGGSAGGS [r10_163_JUSTAS]	1.77 ± 0.035 kcal/mol	2.349 ± 0.015 kcal/mol	2.17 ± 0.046 kcal/mol
SAGGDMWMIKVEHPNGRPFQIMINPNKPEISIQFNDGETRTFPIPKDYTIEDLAKELPPGYKVEIHPMSAGG [r13_696_TrROS]	2.25 ± 0.1 kcal/mol	2.46 ± 0.051 kcal/mol	2.4 ± 0.17 kcal/mol
SAGGSAGGGMTLQITSIIEIKKPPDGPVVKFTVAGPGTTRTVTINLPENEIKPTTPIPLSRVLSSAGGSAGG [r6_585_JUSTAS]	1.86 ± 0.13 kcal/mol	0.968 ± 0.48 kcal/mol	1.57 ± 0.31 kcal/mol
SAGGMLTLPATVEGDELTLTLPTGATKTVSPNTTVKLPDGTVVSLTPVSPSSVSATVTPLPADATRPSAGGS [r16_277_JUSTAS]	0.208 ± 0.029 kcal/mol	1.601 ± 0.01 kcal/mol	1.21 ± 0.07 kcal/mol
SATAVVIKAEVIFPNNEKKEISVVIENLTEEEVEELAEELEKKIKEEAGIPDIEVKIKVETFAKDDPAFSAG [r14_207_TrMRF]	0.438 ± 0.16 kcal/mol	1.01 ± 0.09 kcal/mol	1.04 ± 0.3 kcal/mol
SAGGSAGGKVTVDPAKVKAILTLKDGSKLIVLEDGVLLYNPKTEKVTLVSLSDLKKLPEDAPVPSAGGSAGG [r6_889_TrMRF]	1.61 ± 0.042 kcal/mol	1.85 ± 0.026 kcal/mol	1.74 ± 0.054 kcal/mol
PNMKMEWIQIPPGDLNDPVKIEAPLPPGTQIMIWVHDNGNGEWRPIFTVNNDEITIKNLPDADHVWVWVIKS [r1_224_TrROS]	1.83 ± 0.13 kcal/mol	2.71 ± 0.1 kcal/mol	2.47 ± 0.28 kcal/mol
SAGGSAGGSAGGSVTSTSSVGSSPGSTTTLTYPEKPLYVTVYTELKDDPTVVTTETFPLLSAGGSAGGSAGG [r7_509_JUSTAS]	1.22 ± 0.19 kcal/mol	1.73 ± 0.066 kcal/mol	1.56 ± 0.39 kcal/mol
SAGGDVTISIMIFVWPGWTEEQYKEMAKEVAKTIARQLAQKNPDLNENIDIEDIEVTIIPMEGDPDYFSAGG [r13_128_TrROS]	1.91 ± 0.049 kcal/mol	1.35 ± 0.1 kcal/mol	1.68 ± 0.19 kcal/mol
SAGGSASPAVSSEEEVEALVEELRKKGYEVLSVERTEIPGEDVTDYTIPIRDPSNGKLSTLTLTAGSAGGSA [r15_123_JUSTAS]	0.508 ± 0.037 kcal/mol	0.538 ± 0.15 kcal/mol	0.585 ± 0.12 kcal/mol
SAGGSAGGSAGGSPGNYREVEIEFRDPDDNGKEVKIEIWVQPGMPEEQIKEFVRELLRRSAGGSAGGSAGGS [r4_442_TrROS]	0.942 ± 0.18 kcal/mol	1.4 ± 0.19 kcal/mol	1.32 ± 0.25 kcal/mol
